Tests used:
soluble TREM2 (sTREM2) = molecular target: T1, soluble TREM2 (sTREM2) (Homo sapiens, UniProt Q9NZC2); assay: Soluble TREM2 (TREM2 shedding) assay in HEK293 TREM2/DAP12 cells; assay type: cell-based; parameters: key to STREM2: NC = no change; −− = reduced sTREM2; ++ = increased sTREM2; conditions: change in sTREM2 levels
T1 construct: expressed in transfected cells
Description: HEK293 cells stably expressing human TREM2 and DAP12 were plated onto 96-well plates pre-coated with poly-D-lysine 4-16 hours prior to antibody treatment. Antibody supernatants or control antibodies were diluted into fresh complete media and added onto cells in triplicate. Cells were incubated with antibody containing media for 18 hours prior to removal of the cell supernatant for assay by TREM2 ELISA. Samples and standards were diluted 1:10 into blocking buffer (3% BSA/TBST) in the assay plate. Briefly, MSD small spot streptavidin plates were coated with biotinylated anti-hTREM2 polyclonal antibody (R&D Systems) overnight at 4° C. or 1 hour at room temperature. Plates were then blocked overnight at 4° C., or 1 hour at room temperature, with blocking buffer, 3% BSA/TBST. Plates were washed three times with TBST in a Biotek plate washer (used for all washes) prior to addition of diluent (blocking buffer) and denatured supernatants from cell culture. A TREM2-His protein diluted in 3% BSA/TBST was used as a standard for absolute quantification. Following 1 hour incubation at room temperature, plates were washed with TBST. The primary detection antibody, sulfo-tagged goat anti-human TREM2 (R&D Systems), diluted in 3% BSA/TBST was added and incubated for 1 hour at room temperature. After washing with TBST, MSD plates were developed using 2×MSD read buffer T, followed by detection using an MSD Sector plate reader. MSD values were converted to absolute quantities of sTREM2 by fitting a standard curve using Prism 7.0 software (Graphpad). Modulation of TREM2 shedding was represented as a ratio to cells cultured with no specific TREM2 antibody in the media.

human macrophages [1] = assay: Cell survival assay, human monocyte-derived macrophages, restricted or no M-CSF, CellTiter Glo; assay type: cell-based; conditions: plate coated antibody, 5 ng/mL or no M-CSF, day 6
Description: TREM2 can support microglia energy homeostasis (Ulland et al., Cell, 2017, 170:649-663). […] To understand if enhancing TREM2 activity with TREM2 agonistic antibodies is sufficient for macrophage/microglia survival under limited M-CSF conditions, human macrophage differentiation and survival studies were performed using antibodies as described herein. Human monocytes isolated from peripheral blood were incubated with 5 ng/mL M-CSF in the presence of titrated concentrations of plate coated TREM2 antibodies or isotype controls. On day 6 cell viability was determined by CellTiter Glo viability assay.

human macrophages [2] = assay: Signaling pathway Alpha-LISA (pSYK, pERK1/2, pGSK3-beta, pAKT) in human macrophages; assay type: cell-based; conditions: 15 minutes
Description: Anti-TREM2 antibodies were characterized for activation of several signaling pathways, SYK, ERK1/2, AKT and GSK3-beta. Human macrophages differentiated from peripheral monocytes were plated in 96-well plates at a density of 100,000 cell/well. The assay was tested in three conditions (0%, 0.5%, and 10% FBS in the media) for 3 hours. Cells were stimulated with the antibody RS9.F6, 24B4.A1, 8A11.B1, 3D3.A1, 54C2.A1, isotype control IgG2ak, rat anti-TREM2 from R&D, isotype control rat IgG2b, or no treatment (NT) for 15 minutes. The cell lysates were measured for p-Y525/526-SYK, p-T202/Y204-ERK1/2, p-S9-GSK3-beta, and p-S473-AKT using Alpha-LISA kits (Perkin Elmer). […] The antibodies stimulated p-GSK signal moderately (FIG. 6C).

TREM2 [3] = molecular target: T2, TREM2 (Homo sapiens, UniProt Q9NZC2); assay: FACS binning on human TREM2-HEK cells (competition with R&D antibody); assay type: binding; conditions: epitope bin, 100 nM antibody
T2 construct: expressed in transfected cells
Description: HEK293 overexpressing human TREM2 (H6) were harvested by 0.05% trypsin and incubated at 37° C. incubator for 2 hours for surface TREM2 recovery. After incubation, cells were washed with 1×PBS and FACS buffer (PBS+0.5% BSA) with human Trustain FcX solution (Biolegend, Cat #422302) was added at a density of 10^6/mL. Cells were seeded at 100,000 cells per well in a 96-well round-bottom and incubated 20 minutes at room temperature. After incubation, anti-TREM2 antibodies (100 nM) were added to the cells and the cells were incubated for 45 minutes on ice. After incubation, rat anti-h/mTREM2-APC antibody (1:100, R&D, Cat # FAB17291A) was added to the cells, and the cells were incubated for 30 minutes on ice. After incubation, cells were washed with FACS buffer three times and resuspended in 10 μL FACS buffer, then analyzed by flow cytometry (BD FACSCanto II, San Jose, Calif.). 20,000 events were obtained for each sample. The ability to compete with R&D antibody was determined by MFI analysis compared to isotype or buffer control wells.
T2 sequence (O43914 22-113 partner, one chain of several): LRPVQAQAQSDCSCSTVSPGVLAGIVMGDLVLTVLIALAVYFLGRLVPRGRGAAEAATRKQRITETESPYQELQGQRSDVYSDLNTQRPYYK

hTREM2 [4] = molecular target: T3, hTREM2 (Homo sapiens, UniProt Q9NZC2); assay: Octet binning (competition with R&D antibody on biotinylated TREM2-His); assay type: binding; conditions: epitope bin, 100 nM
T3 construct: The ecto domain (residues 19-172) of TREM2 (UniProtKB—Q9NZC2); secretion signal of mouse Ig kappa chain V-III (P01661 aa 1-20) (N); made in house; host or cells: Expi293F
T3 sequence (Q9NZC2 19-172): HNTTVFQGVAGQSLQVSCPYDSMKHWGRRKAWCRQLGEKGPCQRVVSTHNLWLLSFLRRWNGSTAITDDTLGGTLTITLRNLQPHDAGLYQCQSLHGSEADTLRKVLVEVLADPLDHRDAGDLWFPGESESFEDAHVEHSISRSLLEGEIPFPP
Description: Competition with R&D antibody was done by Octet Red using biotinylated human Trem2-His protein generated in house. Biotinylated human TREM2-His protein was captured on a streptavidin tip, and the tip was then incubated in either 100 nM of R&D Ab or buffer for 3 minutes, followed by incubation for 3 minutes in 100 nM of testing hybridoma. The difference of hybridoma binding curve with or without pre-binding to R&D antibody was analyzed to determine the epitope.

TREM2 [5] = molecular target: T4, TREM2 (Homo sapiens, UniProt Q9NZC2); assay: TREM2 pSyk antagonist assay on human macrophages (antibody pre-incubation, then liposomes); assay type: cell-based; conditions: FIGS. 9C-9D, 30 nM antibody
T4 construct: macrophage cells that endogenously express TREM2; endogenous in cells; host or cells: primary human monocyte-derived macrophages from donor blood
T4 sequence (Q9NZC2 19-230): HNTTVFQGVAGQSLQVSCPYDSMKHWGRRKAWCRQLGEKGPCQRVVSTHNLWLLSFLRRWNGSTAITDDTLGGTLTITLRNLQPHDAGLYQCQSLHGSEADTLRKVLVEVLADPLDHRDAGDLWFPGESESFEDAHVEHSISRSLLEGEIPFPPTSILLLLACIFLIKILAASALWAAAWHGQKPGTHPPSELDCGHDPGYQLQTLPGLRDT
Description: Human macrophages were differentiated from donor blood using a human monocyte enrichment cocktail (Stem Cell Technologies) and culturing monocytes with human mCSF for five days in macrophage media (RPMI+10% Hyclone FBS+Glutamax+Pen/Strep+non-essential amino acids+sodium pyruvate). On the fifth day, the human macrophages were scraped from the flasks and were re-plated at 100,000 cells/well on a 96-well poly-D-lysine-coated plate in the macrophage media (without mCSF). The cells were incubated for 24 hours to adhere, then the media was removed.
Antibodies diluted in RPMI alone were immediately added to the cells, and allowed to incubate for 30 minutes at 37° C. The antibodies were then removed. Lipid vesicles comprised of 70% DOPC and 30% POPS (made according to the procedure for making vesicles described above) in HBSS were added to the cells and incubated […] at 37° C. The liposome/antibody solution was removed, and 35 μL lysis buffer (Cell Signaling Technologies, CST) was added using the liquid handler. The lysate was then incubated at 4° C. for 30 minutes, then either frozen at −80° C. or immediately carried forward to a pSyk AlphaLISA assay as described above.

hTREM2 [6] = molecular target: T3, hTREM2; assay: Biacore T200 binding kinetics to hTREM2; conditions: analyte hTREM2
Description: (§1) The binding of the TREM2/TfR-binding protein RS9.F6/3C35.21.17 to TREM2 and TfR was measured using SPR on a Biacore T200 instrument. To measure TfR binding, anti-human-Fab was immobilized on a CM5 chip, and the TREM2/TfR-binding protein was captured. Full-length human TfR or human TfR apical domain at serial dilution (e.g., concentrations of 1-1000 nM) was flowed over the chip (180 second association time) and then allowed to dissociate. Fitting was performed using a 1:1 binding model. To measure TREM2 binding, anti-human-Fc antibody was immobilized on a CM5 chip, and the TREM2/TfR-binding protein was captured. A range of concentrations of recombinant TREM2-His protein were flowed over the chip, and allowed to associate and dissociate. The resulting sensograms were fitted using a 1:1 Langmuir model to estimate kon and koff (FIG. 10).
(§2) The affinities of RS9.F6/3C35.21.17 for human TREM2 and TfR were determined by surface plasmon resonance using a Biacore™ T200. Biacore Series S CM5 sensor chips were immobilized with a mixture of two monoclonal mouse anti-Fab antibodies (Human Fab capture kit from GE Healthcare). Serial 3-fold dilutions of each antigen were injected at a flow rate of 30 μL/min. The binding of the antigens to captured antibody was monitored for 30 to 180 seconds and then their dissociation was monitored for 30-300 seconds in HBS-EP+running buffer (GE, # BR100669). Binding response was corrected by subtracting the RU from a blank flow cell. A 1:1 Languir model of simultaneous fitting of kon and koff was used for kinetics analysis.

hTfR apical domain = assay: Biacore T200 binding kinetics to hTfR apical domain; parameters: species or system human; conditions: analyte hTfR apical domain
Description: as §1
as §2, with “Binding response was corrected by subtracting the RU from a blank flow cell. A 1:1 Languir model of simultaneous fitting of kon and koff was used for kinetics analysis.” left out

T1 sequence (O43914 22-113 partner, one chain of several): as the sequence (O43914 22-113 partner, one chain of several) above

| STREM2 (soluble TREM2 (sTREM2)) | Bin by FACS (TREM2 [3]) | Bin by Octet (hTREM2 [4]) | liposome mediated pSyk signaling after antibody pre-incubation (TREM2 [5]) | ka (hTREM2 [6]) | kd (hTREM2 [6]) | ka (hTfR apical domain) | kd (hTfR apical domain) | Molecule | survival of human macrophages (human macrophages [1]) | p-SYK signal (human macrophages [2]) | pERK1/2 signal (human macrophages [2]) |
| --- | --- | --- | --- | --- | --- | --- | --- | --- | --- | --- | --- |
| NC | 1 | 1 | enhanced | – | – | – | – | 54C2.A1: anti-TREM2 antibody clone; VH SEQ ID NO:22, VL SEQ ID NO:33 (antibody, V domains shown) VH: QVHLQQSGSELRSPGSSVKLSCKDFDSEVFPIAYMSWVRQKPGHGFEWIGDILPSIGRRIYGVKFEDKATLDADTVSNTAYLELNSLTSEDSAIYYCTRKDYGSLAYWGQGTLVTVSA VL: DVVMTQTPLSLPVSLGDQASISCRSSQSLVHINGNTYLQWYLQKPGQSPKLLIYKVSNRFSGVPDRFSGSGSGTDFTLRISRVEAEDLGVYFCSQSTHLPYTFGGGTKLEIK | increased the survival | robust | robust |
| – | – | – | – | 150000 M⁻¹ s⁻¹ | 0.00038 s⁻¹ | 1.7e+06 M⁻¹ s⁻¹ | 0.19 s⁻¹ | RS9.F6/3C35.21.17_LALAPG: TREM2/TfR-binding protein: RS9.F6 Fabs on TfR-binding knob Fc and hole Fc; SEQ ID NOs:35, 91, 92 (protein) light: DVVMTQTPLSLPVSLGDQASISCRSSQSLVHNNGNTFLHWYLQKPGQSPKLLIYKVSNRFSGVPDRFSGSGSGTDFTLKISRVEAEDLGVYFCSQTTHVPPTFGGGTKLEIK heavy 1: QVQLQQPGAELVKPGASVKLSCKASGYTFTSYWMHWVKQSPGRGLEWIGRSDPTTGGTNYNEKFKTKATLTVDKPSSTAYMQLSSLTSDDSAVYYCVRTSGTGDYWGQGTSLTVSSASTKGPSVFPLAPSSKSTSGGTAALGCLVKDYFPEPVTVSWNSGALTSGVHTFPAVLQSSGLYSLSSVVTVPSSSLGTQTYICNVNHKPSNTKVDKKVEPKSCDKTHTCPPCPAPEAAGGPSVFLFPPKPKDTLMISRTPEVTCVVVDVSHEDPEVKFNWYVDGVEVHNAKTKPREEQYNSTYRVVSVLTVLHQDWLNGKEYKCKVSNKALGAPIEKTISKAKGQPREPQVYTLPPSRDELTKNQVSLWCLVKGFYPSDIAVLWESYGTEWASYKTTPPVLDSDGSFFLYSKLTVTKEEWQQGFVFSCSVMHEALHNHYTQKSLSLSPGK heavy 2: QVQLQQPGAELVKPGASVKLSCKASGYTFTSYWMHWVKQSPGRGLEWIGRSDPTTGGTNYNEKFKTKATLTVDKPSSTAYMQLSSLTSDDSAVYYCVRTSGTGDYWGQGTSLTVSSASTKGPSVFPLAPSSKSTSGGTAALGCLVKDYFPEPVTVSWNSGALTSGVHTFPAVLQSSGLYSLSSVVTVPSSSLGTQTYICNVNHKPSNTKVDKKVEPKSCDKTHTCPPCPAPEAAGGPSVFLFPPKPKDTLMISRTPEVTCVVVDVSHEDPEVKFNWYVDGVEVHNAKTKPREEQYNSTYRVVSVLTVLHQDWLNGKEYKCKVSNKALGAPIEKTISKAKGQPREPQVYTLPPSRDELTKNQVSLSCAVKGFYPSDIAVEWESNGQPENNYKTTPPVLDSDGSFFLVSKLTVDKSRWQQGNVFSCSVMHEALHNHYTQKSLSLSPGK | – | – | – |

Source: patent US20200277373A1, “ANTI-TREM2 ANTIBODIES AND METHODS OF USE THEREOF” (Denali Therapeutics Inc., priority 2017, published 2020)
